Experiment [1] addresses GST-tagged version of human FcγRIIIA (human) (UniProt P08637). Put plainly: AlphaLISA vs biotin-huIgG, supernatant, round 3. For orientation: In Alpha technology, singlet oxygen from a donor bead excites a nearby acceptor bead.
Experiment [2] has the same target. Put plainly: AlphaLISA vs biotin-huIgG, supernatant, round 2.
The target is the same in experiment [3]. Kind of experiment: AlphaLISA vs biotin-huIgG, supernatant, round 1.

Consider 25 substances from US20140112926A1.

A word on the % inhibition: it is the drop in the measured response relative to a control, in per cent. A lower % inhibition goes with a response near the control.

GST-tagged version of human FcγRIIIA (human), sequence (P08637 17-208 limits assumed): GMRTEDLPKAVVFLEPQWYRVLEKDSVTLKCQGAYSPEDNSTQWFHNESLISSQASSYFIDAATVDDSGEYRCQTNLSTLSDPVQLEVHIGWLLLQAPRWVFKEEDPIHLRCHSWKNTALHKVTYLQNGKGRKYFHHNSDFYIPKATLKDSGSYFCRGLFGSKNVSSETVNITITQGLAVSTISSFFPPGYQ

For the substance “scFv-Fc/Fc, F243I in scFv-Fc (Fc fusion)”, the % inhibition in experiment [1] is 72.8%; in experiment [2], 73.1%; in experiment [3] it was 60.6%. In addition, the Alpha signal in experiment [1] stood at 21400; in experiment [2], 21700; in experiment [3], 30000.
As for “scFv-Fc/Fc, K334L in dummy Fc (Fc fusion)”, the % inhibition in experiment [1] came out at 68.1%; in experiment [2] it was 70.9%; in experiment [3], 64.9%. Besides, the Alpha signal in experiment [1] stood at 25100; in experiment [2], 23400; in experiment [3], 26700.
With “scFv-Fc/Fc, T256Q in scFv-Fc (from UniProt P0DOX5 218-449; P0DOX5 218-449) (Fc fusion)”, the values for the % inhibition in experiment [1], in experiment [2] and in experiment [3] were 73.5%, 76.3% and 65.1%, respectively. Besides, the Alpha signal in experiment [1] stood at 20800; in experiment [2], 19100; in experiment [3], 26500.
“scFv-Fc/Fc, F243V in dummy Fc (Fc fusion)”: the % inhibition in experiment [1] is 62.8%; in experiment [2] it was 60.1%; in experiment [3], 49%. Also, the Alpha signal turned out to be 29300 in experiment [1], 32100 in experiment [2] and 38800 in experiment [3].
As to “scFv-Fc/Fc, S298A in scFv-Fc (Fc fusion)”, the % inhibition in experiment [1] was found to be 65%; in experiment [2], 68.5%; in experiment [3], 76.5%. The Alpha signal was found to be 27500 in experiment [1], 25300 in experiment [2] and 17900 in experiment [3].
“scFv-Fc/Fc, R255N in dummy Fc (Fc fusion)”: the % inhibition in experiment [1] came to 43.3%; in experiment [2], 39.6%; in experiment [3], 37.4%. Further, the Alpha signal in experiment [1] is 44500; in experiment [2], 48500; in experiment [3], 47500.
For “scFv-Fc/Fc, T307S in scFv-Fc (Fc fusion)”, the % inhibition worked out at 34.6% in experiment [1], 42.1% in experiment [2] and 41.3% in experiment [3]. Besides, in experiment [1], the Alpha signal turned out to be 51400.
Turning to “scFv-Fc/Fc, L234Y in scFv-Fc (Fc fusion)”, the values for the % inhibition in experiment [1], in experiment [2] and in experiment [3] were 35.7%, 42.9% and 27.5%, respectively. Moreover, the Alpha signal was 50500 in experiment [1], 45900 in experiment [2] and 55100 in experiment [3].
Consider “scFv-Fc/Fc, I253V in dummy Fc (Fc fusion)”, for which the % inhibition was found to be 25.7% in experiment [1], 23.5% in experiment [2] and 23% in experiment [3]. For the same substance, the Alpha signal in experiment [1] was determined as 58400; in experiment [2], 61500; in experiment [3] it was 58500.
As for “scFv-Fc/Fc, F243V + S239T in dummy Fc (Fc fusion)”, the % inhibition stood at 84.1% in experiment [1], 83% in experiment [2] and 84.8% in experiment [3]. Further, the results for the Alpha signal in experiment [1], in experiment [2] and in experiment [3] were 12500, 13700 and 11600, respectively.
Take “scFv-Fc/Fc, L309K in scFv-Fc (Fc fusion)”: the values for the % inhibition in experiment [1], in experiment [2] and in experiment [3] were 65.4%, 76.5% and 69.2%, respectively. The Alpha signal in experiment [1] was 27200; in experiment [2], 18900; in experiment [3], 23400.
For the substance “scFv-Fc/Fc, T256V in dummy Fc (Fc fusion)”, the values for the % inhibition in experiment [1], in experiment [2] and in experiment [3] were 63.3%, 60.5% and 59.9%, respectively. In addition, the Alpha signal in experiment [1] came out at 28800; in experiment [2], 31800; in experiment [3] it was 30500.
Regarding “scFv-Fc/Fc, L309C in dummy Fc (Fc fusion)”, the results for the % inhibition in experiment [1], in experiment [2] and in experiment [3] were 21.4%, 30.8% and 21.4%, respectively. Besides, the Alpha signal in experiment [1] stood at 61800; in experiment [2], 55600; in experiment [3] it was 59700.
With “scFv-Fc/Fc, K290W in scFv-Fc (Fc fusion)”, the % inhibition in experiment [1] is 24.2%; in experiment [2], 34.6%; in experiment [3], 29.1%. The values for the Alpha signal in experiment [1], in experiment [2] and in experiment [3] were 59500, 52600 and 53900, respectively.
Consider “scFv-Fc/Fc, S239E in dummy Fc (Fc fusion)”, for which the Alpha signal was determined as 33700 in experiment [1], 34800 in experiment [2] and 32500 in experiment [3].
Take “scFv-Fc/Fc, A339T in dummy Fc (Fc fusion)”: the values for the % inhibition in experiment [1], in experiment [2] and in experiment [3] were 36.6%, 27.3% and 25.8%, respectively. Besides, the Alpha signal in experiment [1] is 49800; in experiment [2] it was 58400; in experiment [3], 56400.
In the case of “scFv-Fc/Fc, I253K in scFv-Fc (Fc fusion)”, the % inhibition in experiment [1] was 34.7%; in experiment [2], 35.2%; in experiment [3], 24.5%. Further, the Alpha signal was determined as 51300 in experiment [1], 52100 in experiment [2] and 57400 in experiment [3].
As for “scFv-Fc/Fc, Q311M in dummy Fc (Fc fusion)”, the % inhibition worked out at 87.5% in experiment [1], 86.2% in experiment [2] and 82.7% in experiment [3]. The Alpha signal in experiment [1] came to 9800; in experiment [2], 11100; in experiment [3] it was 13100.
Consider “scFv-Fc/Fc, E294L in dummy Fc (Fc fusion)”, for which the Alpha signal is 32200 in experiment [1], 35400 in experiment [2] and 30100 in experiment [3].
With “scFv-Fc/Fc, S239N in scFv-Fc (Fc fusion)”, the % inhibition in experiment [1] was determined as 68.8%; in experiment [2], 67.5%; in experiment [3], 58%. Further, the values for the Alpha signal in experiment [1], in experiment [2] and in experiment [3] were 24500, 26100 and 31900, respectively.
Regarding “scFv-Fc/Fc, T307E in scFv-Fc (Fc fusion)”, the results for the % inhibition in experiment [1], in experiment [2] and in experiment [3] were 67.2%, 76.4% and 71.5%, respectively. For the same substance, the Alpha signal came to 25800 in experiment [1], 18900 in experiment [2] and 21700 in experiment [3].
Take “scFv-Fc/Fc, K246E in dummy Fc (Fc fusion)”: the % inhibition in experiment [1] stood at 32.1%; in experiment [2] it was 22.2%; in experiment [3], 22.4%. Besides, the values for the Alpha signal in experiment [1], in experiment [2] and in experiment [3] were 53300, 62600 and 58900, respectively.
For the substance “scFv-Fc/Fc, K290Y in scFv-Fc (Fc fusion)”, the % inhibition was 87% in experiment [1], 90.2% in experiment [2] and 87.9% in experiment [3]. Further, the Alpha signal in experiment [1] stood at 10200; in experiment [2] it was 7890; in experiment [3], 9170.
For the substance “scFv-Fc/Fc, T307G in scFv-Fc (Fc fusion)”, the % inhibition in experiment [1] amounted to 51%. This substance showed an Alpha signal in experiment [3] of 32500.
In experiment [1], “scFv-Fc/Fc, E294L in scFv-Fc (Fc fusion)” showed a % inhibition of 76.8%. The Alpha signal was 18200 in experiment [1], 22900 in experiment [2] and 24300 in experiment [3].
